# From patent publication US20250290928A1, “METHOD, KIT AND DEVICE FOR DETECTING EXTRACELLULAR VESICLES” (priority 2022, published 2025)
# No end group written: not given here. *: point of attachment. 5FAM = O=C1OC2(c3ccc(O)cc3Oc3cc(O)ccc32)c2ccc(C(=O)*)cc21; TQ2 = quencher; TQ3 = quencher
# Columns and labels:
# [1] = tested on: MMP in the MDA-MB-231-derived extracellular vesicles; assay: Evaluation of MMP activity of MDA-MB-231-derived extracellular vesicles with 96-well plate (SensoLyte 520 MMP Substrate Sampler Kit); format: biochemical, Human; settings: MP, EV 3.3 μg/mL
# Experimental: 50 μL of the MMP detection solution was added to 50 μL of each of the samples, a reaction was performed at 30° C., and MMP activity was evaluated.
# 50 μL of each of the MMP detection solutions was added to 50 μL of each of the samples, a reaction was performed at 30° C., and MMP activity was evaluated.
# [2] = biological target: T1, MMP14 in the MDA-MB-231-derived extracellular vesicles (Homo sapiens, UniProt P50281); assay: Digital detection of MDA-MB-231-derived extracellular vesicles through MMP14 activity in liquid droplets; format: biochemical
# T1 construct: in terms of intact MMP14 with a molecular weight of 70 kDa
# Experimental: The concentration of the solution is 5 μg/mL.
# Liquid droplets were prepared by a pumping method of an SPG emulsification membrane through use of the reaction solution for forming liquid droplets prepared in the foregoing. A dispersed phase and a continuous phase are shown below.
# An SPG pumping connector (pore diameter: 10 μm, pore diameter: 5 μm, manufactured by SPG Technology Co., Ltd.) was used as the SPG emulsification membrane, and the number of times of pumping reciprocations was set to 10. Thus, liquid droplets each having a diameter of from about 1 μm to about 10 μm were obtained.
# The emulsified liquid prepared in the foregoing were subjected to a reaction through incubation at 37° C. to promote the generation of fluorescence.
# Next, the images acquired with an SPG pumping connector with a pore diameter of 10 μm were analyzed in the same manner as in Example 19. The above-mentioned fluorescence microscope images after 4 hours of reaction were subjected to predetermined image processing to provide a particle diameter distribution of the liquid droplets shown in FIG. 67, and obtain a histogram representing the number of liquid droplets each showing a fluorescence intensity included in each fraction of fluorescence intensity obtained by dividing fluorescence intensities into intervals of a constant value in each particle diameter range.
# Further, when the concentration of the extracellular vesicles having MMP14 activity was calculated through use of the above-mentioned equation (1) from the total number of liquid droplets in each particle diameter range and the number of positive liquid droplets identified from the histogram, the concentration was able to be estimated as described below.
# [3] = Example 32, 4 h, droplet diameter 3-4 μm
# [4] = Example 32, 4 h, droplet diameter 4-5 μm
# [5] = Example 32, 4 h, droplet diameter 5-6 μm
# [6] = Example 32, 4 h, droplet diameter 6-7 μm
# [7] = Example 32, 4 h, droplet diameter 7-8 μm
# [8] = Example 32, 4 h, droplet diameter <3 μm
# [9] = Example 32, 4 h, droplet diameter >8 μm
substance,measurement,setting,value
TAMRA-GGPLGLAGGK(TQ3) ({TAMRA}-GGPLGLAGGK(TQ3)) [Custom #2T],Fluorescence change after 2 hours of reaction at 30° C.,[1]; 1.25 μM Custom #2T with 1.25 μM SB2,"1,319 ΔRFU"
same,Fluorescence change after 2 hours of reaction at 30° C.,[1]; 1.25 μM Custom #2T with 1.25 μM SB6,"1,527 ΔRFU"
same,Fluorescence change after 2 hours of reaction at 30° C.,[1]; 1.25 μM Custom #2T with 1.25 μM SB7,626 ΔRFU
same,Fluorescence change after 2 hours of reaction at 30° C.,[1]; 1.25 μM Custom #2T with 1.25 μM SB9,469 ΔRFU
same,Fluorescence change after 2 hours of reaction at 30° C.,[1]; 1.25 μM Custom #2T with 1.25 μM SB10,"1,030 ΔRFU"
same,Fluorescence change after 2 hours of reaction at 30° C.,[1]; 5 μM Custom #2T with 5 μM SB2,710 ΔRFU
same,Fluorescence change after 2 hours of reaction at 30° C.,[1]; 5 μM Custom #2T with 5 μM SB6,"1,161 ΔRFU"
same,Fluorescence change after 2 hours of reaction at 30° C.,[1]; 5 μM Custom #2T with 5 μM SB7,288 ΔRFU
same,Fluorescence change after 2 hours of reaction at 30° C.,[1]; 5 μM Custom #2T with 5 μM SB9,153 ΔRFU
same,Fluorescence change after 2 hours of reaction at 30° C.,[1]; 5 μM Custom #2T with 5 μM SB10,592 ΔRFU
[5-FAM]GRIGFLRTAK(TQ2)[OH] (5FAM-GRIGFLRTAK(TQ2)-OH) [Custom #1],Extracellular vesicle concentration,[2]; Example 32,1.9×10^9 /μg of protein
same,Concentration (extracellular vesicles having MMP14 activity),[2]; [3],1.06e+10 mL⁻¹
same,Expected value λ,[2]; [3],0.217
same,Number of positives,[2]; [3],15
same,Positive ratio,[2]; [3],0.195
same,Concentration (extracellular vesicles having MMP14 activity),[2]; [4],9.05e+09 mL⁻¹
same,Expected value λ,[2]; [4],0.416
same,Number of positives,[2]; [4],16
same,Positive ratio,[2]; [4],0.340
same,Concentration (extracellular vesicles having MMP14 activity),[2]; [5],9.85e+09 mL⁻¹
same,Expected value λ,[2]; [5],0.816
same,Number of positives,[2]; [5],29
same,Positive ratio,[2]; [5],0.558
same,Concentration (extracellular vesicles having MMP14 activity),[2]; [6],9.03e+09 mL⁻¹
same,Expected value λ,[2]; [6],1.293
same,Number of positives,[2]; [6],37
same,Positive ratio,[2]; [6],0.725
same,Concentration (extracellular vesicles having MMP14 activity),[2]; [7],9.01e+09 mL⁻¹
same,Expected value λ,[2]; [7],1.910
same,Number of positives,[2]; [7],23
same,Positive ratio,[2]; [7],0.852
same,Concentration (extracellular vesicles having MMP14 activity),[2]; [8],1.04e+10 mL⁻¹
same,Expected value λ,[2]; [8],0.047
same,Positive ratio,[2]; [8],0.046
same,Concentration (extracellular vesicles having MMP14 activity),[2]; [9],8.68e+09 mL⁻¹
same,Expected value λ,[2]; [9],3.296
same,Number of positives,[2]; [9],26
same,Positive ratio,[2]; [9],0.963
same,Number of positives,"[2]; Example 32, SPG pore 10 μm, EV 5 μg/mL, reporter 5 μM, 37° C., 4 h, droplet diameter <3 μm",8
same,average of the extracellular vesicle concentrations,"[2]; Example 32, all droplet diameter ranges, reaction solution 5.0 μg of protein/mL",9.5e+09 mL⁻¹
